One molecule from patent US20250115677A1, “Anti-CEA Antibody Drug Conjugates and Methods of Use” (BeiGene Switzerland GmbH, priority 2022, published 2025) can be followed below.

Assay [1] addresses T1, human CEA on cells (MKN45, LOVO, NCI-H2122, LS174T, CT26/CEA) (human, UniProt P06731 35-685).
T1 construct: Full-length human CEA, endogenous on tumour cell lines or transduced; also called native CEA on living cells; huCEA surface protein
T1 sequence: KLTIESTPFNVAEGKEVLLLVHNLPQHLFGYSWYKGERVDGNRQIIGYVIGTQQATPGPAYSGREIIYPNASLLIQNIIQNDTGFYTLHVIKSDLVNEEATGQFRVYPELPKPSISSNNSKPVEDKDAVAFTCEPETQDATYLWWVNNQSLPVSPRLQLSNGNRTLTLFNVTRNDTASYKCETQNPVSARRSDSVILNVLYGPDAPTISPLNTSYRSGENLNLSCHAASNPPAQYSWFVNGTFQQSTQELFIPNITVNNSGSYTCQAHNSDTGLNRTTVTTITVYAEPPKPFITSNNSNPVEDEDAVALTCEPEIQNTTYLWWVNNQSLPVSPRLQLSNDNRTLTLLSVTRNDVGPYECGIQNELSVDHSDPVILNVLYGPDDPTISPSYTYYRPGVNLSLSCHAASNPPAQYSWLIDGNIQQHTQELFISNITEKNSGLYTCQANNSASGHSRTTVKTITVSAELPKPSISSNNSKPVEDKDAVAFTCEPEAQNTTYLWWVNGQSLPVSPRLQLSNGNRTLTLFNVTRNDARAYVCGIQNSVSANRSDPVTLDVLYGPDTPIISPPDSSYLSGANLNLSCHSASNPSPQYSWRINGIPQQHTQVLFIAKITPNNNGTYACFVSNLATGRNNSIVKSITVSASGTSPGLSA
Nature of the assay: flow cytometry on MKN45 cells, BGA5384 premixed with 0.50 ug/ml recombinant soluble CEA (competitor), anti-huFc-APC. On the procedure: (§1) The mixtures were then incubated with 2×10^5 CEA-expressing cells, such as MKN45 cells, for 30 minutes at 4° C. The cells were stained with secondary antibody anti-huFc-APC (Cat. No. 409320, BioLegend, USA) and analyzed by flow cytometry.

The target of assay [2] is T1, human CEA on cells (MKN45, LOVO, …). Nature of the assay: flow cytometry (MFI) on CEA-expressing MKN45 cells. As to the method: For flow cytometry, CEA-expressing MKN45 cells (10^5 cells/well) were incubated with various concentrations of purified affinity-matured antibodies, followed by binding with Alexa Fluor-647-labeled anti-hu IgG Fc antibody (Cat. No. 409320, BioLegend, USA). Cell fluorescence was quantified using a flow cytometer (Guava easyCyte™ 8HT, Merck-Millipore, USA).

The target in assay [3] is T2, CEACAM8 on transiently transfected HEK293 cells (Homo sapiens (Human), UniProt P31997 35-320).
T2 sequence: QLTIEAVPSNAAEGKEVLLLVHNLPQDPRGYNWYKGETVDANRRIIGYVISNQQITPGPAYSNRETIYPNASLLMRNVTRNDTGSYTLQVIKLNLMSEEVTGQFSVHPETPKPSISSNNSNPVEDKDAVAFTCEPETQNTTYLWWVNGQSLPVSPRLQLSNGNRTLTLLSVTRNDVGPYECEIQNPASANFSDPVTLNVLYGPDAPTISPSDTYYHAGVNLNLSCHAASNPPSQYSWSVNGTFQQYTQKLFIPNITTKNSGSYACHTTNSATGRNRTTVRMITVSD
Description: flow cytometry on transiently transfected HEK293 cells. On the procedure:
(§2) Cell fluorescence was quantified using a flow cytometer (Guava easyCyte™ 8HT, Merck-Millipore, USA). For antigen ELISA, CEACAM1(SEQ ID NO:64) (Cat. No. 10822-H08H, Sino Biological, China), CHIM (SEQ ID NO:63), CEA (SEQ ID NO:55) or CEACAM6 (SEQ ID NO:57) were coated in 96-well plates at a concentration of 10 μg/ml overnight at 4° C.

Assay [4] has as its target T3, CEACAM7 on transiently transfected HEK293 cells (Homo sapiens (Human), UniProt Q14002 36-242).
T3 sequence: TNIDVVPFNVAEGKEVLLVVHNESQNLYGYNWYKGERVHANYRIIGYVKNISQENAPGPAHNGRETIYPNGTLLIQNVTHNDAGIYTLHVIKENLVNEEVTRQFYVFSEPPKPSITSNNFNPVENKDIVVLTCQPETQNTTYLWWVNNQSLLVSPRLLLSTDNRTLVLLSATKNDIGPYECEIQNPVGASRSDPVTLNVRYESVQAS
Described as above. On the procedure:
as §2

Assay [5] concerns the target T4, CEACAM3 on transiently transfected HEK293 cells (Homo sapiens (Human), UniProt P40198 35-252).
T4 sequence: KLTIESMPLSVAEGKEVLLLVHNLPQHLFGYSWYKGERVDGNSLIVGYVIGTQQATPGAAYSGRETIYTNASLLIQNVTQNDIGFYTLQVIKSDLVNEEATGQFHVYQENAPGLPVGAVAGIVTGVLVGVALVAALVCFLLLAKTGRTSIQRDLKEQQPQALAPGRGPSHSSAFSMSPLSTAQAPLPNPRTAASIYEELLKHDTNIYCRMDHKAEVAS
The description is as above. As to the method: as §2

The target in assay [6] is T1, human CEA on cells (MKN45, LOVO, …). Nature of the assay: flow cytometry on MKN45 cells, BGA5384 premixed with 2.00 ug/ml recombinant soluble CEA (competitor), anti-huFc-APC. As to the method:
as §1

Assay [7] shares this target. Nature of the assay: flow cytometry on MKN45 cells, no soluble CEA, anti-huFc-APC. On the procedure:
as §1

The target of assay [8] is T5, recombinant human CEACAM6 (AA 1-320, C-terminal 6xHis) (human, UniProt P40199 35-320).
T5 sequence: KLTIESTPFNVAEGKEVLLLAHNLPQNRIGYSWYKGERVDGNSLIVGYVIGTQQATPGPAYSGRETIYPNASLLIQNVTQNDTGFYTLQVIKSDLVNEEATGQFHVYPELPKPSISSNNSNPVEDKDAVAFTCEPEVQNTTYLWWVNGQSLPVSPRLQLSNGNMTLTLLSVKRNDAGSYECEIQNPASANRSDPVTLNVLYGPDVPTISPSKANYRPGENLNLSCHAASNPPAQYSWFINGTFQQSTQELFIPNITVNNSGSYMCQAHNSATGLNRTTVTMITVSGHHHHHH
Nature of the assay: antigen ELISA, antigen coated at 10 ug/ml, HRP anti-human Fc. As to the method:
as §2

B1: BGA5384 (antibody, human IgG1, kappa, V domains shown)
VH: QVQLVQSGAEVKKPGASVKVSCKASGYIFTSYYLHWVRQAPGQGLEWIGYINPQTGKTSYAQKFQGRVTMTRDTSTSTVYMELSSLRSEDTAVYYCAREYGNYNYPLDYWGQGTLVTVSS
VL: DIQMTQSPSSLSASVGDRVTITCRASENQYGYLAWYQQKPGKVPKLLIYNYKNLVEGVPSRFSGSGSGTDFTLTISSLQPEDVATYYCQHHLGTPYTFGQGTKVEIKR
notes: BGA6710 with Y57K in VH; human IgG1 format; also called BGA7592-1K
Regarding B1, the “EC50 (read off the curve)” value in assay [1] is roughly 1 µg/mL; in assay [6], roughly 2 µg/mL; in assay [7], roughly 0.7 µg/mL. In addition, the EC50 in assay [2] amounted to 2.92 µg/mL. The binding result in assay [3] is “no binding (tested: 2 µg/ml)”; in assay [4] it was “no binding (tested: 2 µg/ml)”; in assay [5], “no binding (tested: 2 µg/ml)”; in assay [8] it was “no binding”.
